# T1: Bovine, dephosphorylated, Myelin Basic Protein (MBP), P02687
# T1 chain: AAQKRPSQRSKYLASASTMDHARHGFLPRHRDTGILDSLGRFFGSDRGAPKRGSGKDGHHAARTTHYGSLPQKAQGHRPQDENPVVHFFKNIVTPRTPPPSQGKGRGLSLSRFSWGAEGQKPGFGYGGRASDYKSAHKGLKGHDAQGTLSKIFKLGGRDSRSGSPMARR
# Biological target: T1, Bovine, dephosphorylated, Myelin Basic …
row,Protein,MBP Kinase Activity
1,EPHA2 (protein) HRRRKNQRARQSPEDVYFSKSEQLKPLKTYVDPHTYEDPNQAVLKFTTEIHPSCVTRQKVIGAGEFGEVYKGMLKTSSGKKEVPVAIKTLKAGYTEKQRVDFLGEAGIMGQFSHHNIIRLEGVISKYKPMMIITEYMENGALDKFLREKDGEFSVLQLVGMLRGIAAGMKYLANMNYVHRDLAARNILVNSNLVCKVSDFGLSRVLEDDPEATYTTSGGKIPIRWTAPEAISYRKFTSASDVWSFGIVMWEVMTYGERPYWELSNHEVMKAINDGFRLPTPMDCPSAIYQLMMQCWQQERARRPKFADIVSILDKLIRAPDSLKTLADFDPRVSIRLPSTSGSEGVPFRTVSEWLESIKMQQYTEHFMAAGYTAIEKVVQMTNDDIKRIGVRLPGHQKRIAYSLLGLKDQVNTVGIPI,Weak
2,CSNK1E(CK1eps) (protein) MELRVGNKYRLGRKIGSGSFGDIYLGANIASGEEVAIKLECVKTKHPQLHIESKFYKMMQGGVGIPSIKWCGAEGDYNVMVMELLGPSLEDLFNFCSRKFSLKTVLLLADQMISRIEYIHSKNFIHRDVKPDNFLMGLGKKGNLVYIIDFGLAKKYRDARTHQHIPYRENKNLTGTARYASINTHLGIEQSRRDDLESLGYVLMYFNLGSLPWQGLKAATKRQKYERISEKKMSTPIEVLCKGYPSEFSTYLNFCRSLRFDDKPDYSYLRQLFRNLFHRQGFSYDYVFDWNMLKFGAARNPEDVDRERREHEREERMGQLRGSATRALPPGPPTGATANRLRSAAEPVASTPASRIQPAGNTSPRAISRVDRERKVSMRLHRGAPANVSSSDLTGRQEVSRIPASQTSVPFDHLGK,Negative
3,DAPK3(ZIPK) (protein) MSTFRQEDVEDHYEMGEELGSGQFAIVRKCRQKGTGKEYAAKFIKKRRLSSSRRGVSREEIEREVNILREIRHPNIITLHDIFENKTDVVLILELVSGGELFDFLAEKESLTEDEATQFLKQILDGVHYLHSKRIAHFDLKPENIMLLDKNVPNPRIKLIDFGIAHKIEAGNEFKNIFGTPEFVAPEIVNYEPLGLEADMWSIGVITYILLSGASPFLGETKQETLTNISAVNYDFDEEYFSNTSELAKDFIRRLLVKDPKRRMTIAQSLEHSWIKAIRRRNVRGEDSGRKPERRRLKTTRLKEYTIKSHSSLPPNNSYADFERFSKVLEEAAAAEEGLRELQRSRRLCHEDVEALAAIYEEKEAWYREESDSLGQDLRRLRQELLKTEALKRQAQEEAKGALLGTSGLKRRFSRLENRYEALAKQVASEMRFVQDLVRALEQEKLQGVECGLR,Negative
4,DAPK2 (protein) MFQASMRSPNMEPFKQQKVEDFYDIGEELGSGQFAIVKKCREKSTGLEYAAKFIKKRQSRASRRGVSREEIEREVSILRQVLHHNVITLHDVYENRTDVVLILELVSGGELFDFLAQKESLSEEEATSFIKQILDGVNYLHTKKIAHFDLKPENIMLLDKNIPIPHIKLIDFGLAHEIEDGVEFKNIFGTPEFVAPEIVNYEPLGLEADMWSIGVITYILLSGASPFLGDTKQETLANITAVSYDFDEEFFSQTSELAKDFIRKLLVKETRKRLTIQEALRHPWITPVDNQQAMVRRESVVNLENFRKQYVRRRWKLSFSIVSLCNHLTRSLMKKVHLRPDEDLRNCESDTEEDIARRKALHPRRRSSTS,Negative
5,CSNK2A2 (protein) MPGPAAGSRARVYAEVNSLRSREYWDYEAHVPSWGNQDDYQLVRKLGRGKYSEVFEAINITNNERVVVKILKPVKKKKIKREVKILENLRGGTNIIKLIDTVKDPVSKTPALVFEYINNTDFKQLYQILTDFDIRFYMYELLKALDYCHSKGIMHRDVKPHNVMIDHQQKKLRLIDWGLAEFYHPAQEYNVRVASRYFKGPELLVDYQMYDYSLDMWSLGCMLASMIFRREPFFHGQDNYDQLVRIAKVLGTEELYGYLKKYHIDLDPHFNDILGQHSRKRWENFIHSENRHLVSPEALDLLDKLLRYDHQQRLTAKEAMEHPYFYPVVKEQSQPCADNAVLSSGLTAAR,Negative
6,EPHA3 (protein) RFCGYKSKHGADEKRLHFGNGHLKLPGLRTYVDPHTYEDPTQAVHEFAKELDATNISIDKVVGAGEFGEVCSGRLKLPSKKEISVAIKTLKVGYTEKQRRDFLGEASIMGQFDHPNIIRLEGVVTKSKPVMIVTEYMENGSLDSFLRKHDAQFTVIQLVGMLRGIASGMKYLSDMGYVHRDLAARNILINSNLVCKVSDFGLSRVLEDDPEAAYTTRGGKIPIRWTSPEAIAYRKFTSASDVWSYGIVLWEVMSYGERPYWEMSNQDVIKAVDEGYRLPPPMDCPAALYQLMLDCWQKDRNNRPKFEQIVSILDKLIRNPGSLKIITSAAARPSNLLLDQSNVDITTFRTTGDWLNGVWTAHCKEIFTGVEYSSCDTIAKISTDDMKKVGVTVVGPQKKIISSIKALETQSKNGPVPV,Strong
7,CSNK1D(CK1delta) (protein) MELRVGNRYRLGRKIGSGSFGDIYLGTDIAAGEEVAIKLECVKTKHPQLHIESKIYKMMQGGVGIPTIRWCGAEGDYNVMVMELLGPSLEDLFNFCSRKFSLKTVLLLADQMISRIEYIHSKNFIHRDVKPDNFLMGLGKKGNLVYIIDFGLAKKYRDARTHQHIPYRENKNLTGTARYASINTHLGIEQSRRDDLESLGYVLMYFNLGSLPWQGLKAATKRQKYERISEKKMSTPIEVLCKGYPSEFATYLNFCRSLRFDDKPDYSYLRQLFRNLFHRQGFSYDYVFDWNMLKFGASRAADDAERERRDREERLRHSRNPATRGLPSTASGRLRGTQEVAPPTPLTPTSHTANTSPRPVSGMERERKVSMRLHRGAPVNISSSDLTGRQDTSRMSTSQNSIPFEHHGK,Negative
8,CSNK2A1(CK2alpha1) (protein) MSGPVPSRARVYTDVNTHRPREYWDYESHVVEWGNQDDYQLVRKLGRGKYSEVFEAINITNNEKVVVKILKPVKKKKIKREIKILENLRGGPNIITLADIVKDPVSRTPALVFEHVNNTDFKQLYQTLTDYDIRFYMYEILKALDYCHSMGIMHRDVKPHNVMIDHEHRKLRLIDWGLAEFYHPGQEYNVRVASRYFKGPELLVDYQMYDYSLDMWSLGCMLASMIFRKEPFFHGHDNYDQLVRIAKVLGTEDLYDYIDKYNIELDPRFNDILGRHSRKRWERFVHSENQHLVSPEALDFLDKLLRYDHQSRLTAREAMEHPYFYTVVKDQARMGSSSMPGGSTPVSSANMMSGISSVPTPSPLGPLAGSPVIAAANPLGMPVPAAAGAQQ,Strong
9,STK6(AuroraA) (protein) MDRSKENCISGPVKATAPVGGPKRVLVTQQFPCQNPLPVNSGQAQRVLCPSNSSQRIPLQAQKLVSSHKPVQNQKQKQLQATSVPHPVSRPLNNTQKSKQPLPSAPENNPEEELASKQKNEESKKRQWALEDFEIGRPLGKGKFGNVYLAREKQSKFILALKVLFKAQLEKAGVEHQLRREVEIQSHLRHPNILRLYGYFHDATRVYLILEYAPLGTVYRELQKLSKFDEQRTATYITELANALSYCHSKRVIHRDIKPENLLLGSAGELKIADFGWSVHAPSSRRTTLCGTLDYLPPEMIEGRMHDEKVDLWSLGVLCYEFLVGKPPFEANTYQETYKRISRVEFTFPDFVTEGARDLISRLLKHNPSQRPMLREVLEHPWITANSSKPSNCQNKESASKQS,Weak
10,CHEK1 (protein) MAVPFVEDWDLVQTLGEGAYGEVQLAVNRVTEEAVAVKIVDMKRAVDCPENIKKEICINKMLNHENVVKFYGHRREGNIQYLFLEYCSGGELFDRIEPDIGMPEPDAQRFFHQLMAGVVYLHGIGITHRDIKPENLLLDERDNLKISDFGLATVFRYNNRERLLNKMCGTLPYVAPELLKRREFHAEPVDVWSCGIVLTAMLAGELPWDQPSDSCQEYSDWKEKKTYLNPWKKIDSAPLALLHKILVENPSARITIPDIKKDRWYNKPLKKGAKRPRVTSGGVSESPSGFSKHIQSNLDFSPVNSASSEENVKYSSSQPEPRTGLSLWDTSPSYIDKLVQGISFSQPTCPDHMLLNSQLLGTPGSSQNPWQRLVKRMTRFFTKLDADKSYQCLKETCEKLGYQWKKSCMNQVTISTTDRRNNKLIFKVNLLEMDDKILVDFRLSKGDGLEFKRHFLKIKGKLIDIVSSQKIWLPAT,Strong
11,AKT3 (protein) MSDVTIVKEGWVQKRGEYIKNWRPRYFLLKTDGSFIGYKEKPQDVDLPYPLNNFSVAKCQLMKTERPKPNTFIIRCLQWTTVIERTFHVDTPEEREEWTEAIQAVADRLQRQEEERMNCSPTSQIDNIGEEEMDASTTHHKRKTMNDFDYLKLLGKGTFGKVILVREKASGKYYAMKILKKEVIIAKDEVAHTLTESRVLKNTRHPFLTSLKYSFQTKDRLCFVMEYVNGGELFFHLSRERVFSEDRTRFYGAEIVSALDYLHSGKIVYRDLKLENLMLDKDGHIKITDFGLCKEGITDAATMKTFCGTPEYLAPEVLEDNDYGRAVDWWGLGVVMYEMMCGRLPFYNQDHEKLFELILMEDIKFPRTLSSDAKSLLSGLLIKDPNKRLGGGPDDAKEIMRHSFFSGVNWQDVYDKKLVPPFKPQVTSETDTRYFDEEFTAQTITITPPEKYDEDGMDCMDNERRPHFPQFSYSASGRE,Strong
12,DMPK (protein) MSAEVRLRRLQQLVLDPGFLGLEPLLDLLLGVHQELGASELAQDKYVADFLQWAEPIVVRLKEVRLQRDDFEILKVIGRGAFSEVAVVKMKQTGQVYAMKIMNKWDMLKRGEVSCFREERDVLVNGDRRWITQLHFAFQDENYLYLVMEYYVGGDLLTLLSKFGERIPAEMARFYLAEIVMAIDSVHRLGYVHRDIKPDNILLDRCGHIRLADFGSCLKLRADGTVRSLVAVGTPDYLSPEILQAVGGGPGTGSYGPECDWWALGVFAYEMFYGQTPFYADSTAETYGKIVHYKEHLSLPLVDEGVPEEARDFIQRLLCPPETRLGRGGAGDFRTHPFFFGLDWDGLRDSVPPFTPDFEGATDTCNFDLVEDGLTAMVSGGGETLSDIREGAPLGVHLPFVGYSYSCMALRDSEVPGPTPMELEAEQLLEPHVQAPSLEPSVSPQDETAEVAVPAAVPAAEAEAEVTLRELQEALEEEVLTRQSLSREMEAIRTDNQNFASQLREAEARNRDLEAHVRQLQERMELLQAEGATAVTGVPSPRATDPPSHLDGPPAVAVGQCPLVGPGPMHRRHLLLPARVPRPGLSEALSLLLFAVVLSRAAALGCIGLVAHAGQLTAVWRRPGAARAP,Negative

# Reference: patent US20090099029
